To fix the notation:
B1: Unconventional myosin-Ie, residues 1051 to 1108; numbered along this chain, Q12965 (parent)
chain: PQVPQCKALYAYDAQDTDELSFNANDIIDIIKEDPSGWWTGRLRGKQGLFPNNYVTKI

± gives the uncertainty stated by the source.

Variants of B1 are the subject of this data set. The experiment in a line: abundance fitness (aPCA) (normalised: wild type 0, dead -1); higher = more abundant; growth selection in yeast, the domain comes from the species named. The following applies: Homo sapiens.
As to PQVPQCKALYAYDAQDTDELSFNANDQIDIIKEDPSGWWTGRLRGKQGLFPNNYVTKI [I27Q], the abundance fitness was -0.327 ± 0.077.
PQVPQCKALYAYDAQDTDELSFNANDMIDIIKEDPSGWWTGRLRGKQGLFPNNYVTKI [I27M]: the abundance fitness is -0.156 ± 0.065.
With PQVPQCKALYAYDAQDTDELSFNANDWIDIIKEDPSGWWTGRLRGKQGLFPNNYVTKI [I27W], the abundance fitness is -0.466 ± 0.048.
For PQVPQCKALYAYDAQDTDELSFNANDAIDIIKEDPSGWWTGRLRGKQGLFPNNYVTKI [I27A], the abundance fitness is -0.47 ± 0.057.
In the case of PQVPQCKALYAYDAQDTDELSFNANDYIDIIKEDPSGWWTGRLRGKQGLFPNNYVTKI [I27Y], the abundance fitness is -0.19 ± 0.042.
With PQVPQCKALYAYDAQDTDELSFNANDSIDIIKEDPSGWWTGRLRGKQGLFPNNYVTKI [I27S], the abundance fitness was -0.655 ± 0.087.
On to PQVPQCKALYAYDAQDTDELSFNANDNIDIIKEDPSGWWTGRLRGKQGLFPNNYVTKI [I27N], for which the abundance fitness is -0.233 ± 0.093.
Take PQVPQCKALYAYDAQDTDELSFNANDPIDIIKEDPSGWWTGRLRGKQGLFPNNYVTKI [I27P]: the abundance fitness was -0.681 ± 0.24.
Take PQVPQCKALYAYDAQDTDELSFNANDVIDIIKEDPSGWWTGRLRGKQGLFPNNYVTKI [I27V]: the abundance fitness is -0.085 ± 0.049.
In the case of PQVPQCKALYAYDAQDTDELSFNANDKIDIIKEDPSGWWTGRLRGKQGLFPNNYVTKI [I27K], the abundance fitness is -0.228 ± 0.042.
As to PQVPQCKALYAYDAQDTDELSFNANDRIDIIKEDPSGWWTGRLRGKQGLFPNNYVTKI [I27R], the abundance fitness was -0.374 ± 0.049.
Take PQVPQCKALYAYDAQDTDELSFNANDFIDIIKEDPSGWWTGRLRGKQGLFPNNYVTKI [I27F]: the abundance fitness is -0.274 ± 0.099.
On to PQVPQCKALYAYDAQDTDELSFNANDCIDIIKEDPSGWWTGRLRGKQGLFPNNYVTKI [I27C], for which the abundance fitness was -0.261 ± 0.059.
On to PQVPQCKALYAYDAQDTDELSFNANDLIDIIKEDPSGWWTGRLRGKQGLFPNNYVTKI [I27L], for which the abundance fitness was -0.15 ± 0.047.
To PQVPQCKALYAYDAQDTDELSFNANDEIDIIKEDPSGWWTGRLRGKQGLFPNNYVTKI [I27E] belongs -0.432 ± 0.058; to PQVPQCKALYAYDAQDTDELSFNANRIIDIIKEDPSGWWTGRLRGKQGLFPNNYVTKI [D26R], -0.948 ± 0.089; to PQVPQCKALYAYDAQDTDELSFNANYIIDIIKEDPSGWWTGRLRGKQGLFPNNYVTKI [D26Y], -0.776 ± 0.19.
On to PQVPQCKALYAYDAQDTDELSFNANQIIDIIKEDPSGWWTGRLRGKQGLFPNNYVTKI [D26Q], for which the abundance fitness is -0.263 ± 0.11.
To PQVPQCKALYAYDAQDTDELSFNANGIIDIIKEDPSGWWTGRLRGKQGLFPNNYVTKI [D26G] belongs -0.986 ± 0.094.
For the variant PQVPQCKALYAYDAQDTDELSFNANCIIDIIKEDPSGWWTGRLRGKQGLFPNNYVTKI [D26C], the abundance fitness is -0.957 ± 0.28.
Take PQVPQCKALYAYDAQDTDELSFNANWIIDIIKEDPSGWWTGRLRGKQGLFPNNYVTKI [D26W]: the abundance fitness is -0.987 ± 0.2.
As for PQVPQCKALYAYDAQDTDELSFNANKIIDIIKEDPSGWWTGRLRGKQGLFPNNYVTKI [D26K], the abundance fitness is -1.07 ± 0.3.
As for PQVPQCKALYAYDAQDTDELSFNANSIIDIIKEDPSGWWTGRLRGKQGLFPNNYVTKI [D26S], the abundance fitness is -0.522 ± 0.065.
Consider PQVPQCKALYAYDAQDTDELSFNANMIIDIIKEDPSGWWTGRLRGKQGLFPNNYVTKI [D26M], for which the abundance fitness is -0.86 ± 0.12.
To PQVPQCKALYAYDAQDTDELSFNANEIIDIIKEDPSGWWTGRLRGKQGLFPNNYVTKI [D26E] belongs -0.015 ± 0.046; to PQVPQCKALYAYDAQDTDELSFNANFIIDIIKEDPSGWWTGRLRGKQGLFPNNYVTKI [D26F], -0.726 ± 0.27; to PQVPQCKALYAYDAQDTDELSFNANVIIDIIKEDPSGWWTGRLRGKQGLFPNNYVTKI [D26V], -0.855 ± 0.12.
With PQVPQCKALYAYDAQDTDELSFNANHIIDIIKEDPSGWWTGRLRGKQGLFPNNYVTKI [D26H], the abundance fitness is -0.94 ± 0.42.
Turning to PQVPQCKALYAYDAQDTDELSFNANNIIDIIKEDPSGWWTGRLRGKQGLFPNNYVTKI [D26N], the abundance fitness is -0.676 ± 0.2.
PQVPQCKALYAYDAQDTDELSFNANPIIDIIKEDPSGWWTGRLRGKQGLFPNNYVTKI [D26P]: the abundance fitness is -0.981 ± 0.42.
Regarding PQVPQCKALYAYDAQDTDELSFNVNDIIDIIKEDPSGWWTGRLRGKQGLFPNNYVTKI [A24V], the abundance fitness was -0.05 ± 0.034.
Regarding PQVPQCKALYAYDAQDTDELSFNTNDIIDIIKEDPSGWWTGRLRGKQGLFPNNYVTKI [A24T], the abundance fitness is -0.012 ± 0.041.
On to PQVPQCKALYAYDAQDTDELSFNWNDIIDIIKEDPSGWWTGRLRGKQGLFPNNYVTKI [A24W], for which the abundance fitness was -0.481 ± 0.077.
With PQVPQCKALYAYDAQDTDELSFNINDIIDIIKEDPSGWWTGRLRGKQGLFPNNYVTKI [A24I], the abundance fitness is -0.04 ± 0.061.
With PQVPQCKALYAYDAQDTDELSFNENDIIDIIKEDPSGWWTGRLRGKQGLFPNNYVTKI [A24E], the abundance fitness was -0.052 ± 0.054.
As to PQVPQCKALYAYDAQDTDELSFNMNDIIDIIKEDPSGWWTGRLRGKQGLFPNNYVTKI [A24M], the abundance fitness is -0.034 ± 0.074.
As to PQVPQCKALYAYDAQDTDELSFNRNDIIDIIKEDPSGWWTGRLRGKQGLFPNNYVTKI [A24R], the abundance fitness was -0.068 ± 0.044.
In the case of PQVPQCKALYAYDAQDTDELSFNCNDIIDIIKEDPSGWWTGRLRGKQGLFPNNYVTKI [A24C], the abundance fitness is -0.213 ± 0.1.
Turning to PQVPQCKALYAYDAQDTDELSFNDNDIIDIIKEDPSGWWTGRLRGKQGLFPNNYVTKI [A24D], the abundance fitness was -0.477 ± 0.15.
Regarding PQVPQCKALYAYDAQDTDELSFNSNDIIDIIKEDPSGWWTGRLRGKQGLFPNNYVTKI [A24S], the abundance fitness was -0.108 ± 0.053.
Consider PQVPQCKALYAYDAQDTDELSFNKNDIIDIIKEDPSGWWTGRLRGKQGLFPNNYVTKI [A24K], for which the abundance fitness is -0.04 ± 0.045.
In the case of PQVPQCKALYAYDAQDTDELSFNYNDIIDIIKEDPSGWWTGRLRGKQGLFPNNYVTKI [A24Y], the abundance fitness was -0.528 ± 0.18.
Regarding PQVPQCKALYAYDAQDTDELSFNQNDIIDIIKEDPSGWWTGRLRGKQGLFPNNYVTKI [A24Q], the abundance fitness was -0.164 ± 0.07.
For the variant PQVPQCKALYAYDAQDTDELSFNFNDIIDIIKEDPSGWWTGRLRGKQGLFPNNYVTKI [A24F], the abundance fitness was -0.106 ± 0.1.
In the case of PQVPQCKALYAYDAQDTDELSFNNNDIIDIIKEDPSGWWTGRLRGKQGLFPNNYVTKI [A24N], the abundance fitness was -0.648 ± 0.29.
PQVPQCKALYAYDAQDTDELSFNHNDIIDIIKEDPSGWWTGRLRGKQGLFPNNYVTKI [A24H]: the abundance fitness is -0.06 ± 0.12.

These data come from the Human Domainome abundance scans (Beltran et al. 2025).
